Data as given in IntAct's records for PubMed 35512704.

B1: Speckle-type POZ protein (Homo sapiens), O43791 (parent)
chain: MSRVPSPPPPAEMSSGPVAESWCYTQIKVVKFSYMWTINNFSFCREEMGEVIKSSTFSSGANDKLKWCLRVNPKGLDEESKDYLSLYLLLVSCPKSEVRAKFKFSILNAKGEETKAMESQRAYRFVQGKDWGFKKFIRRDFLLDEANGLLPDDKLTLFCEVSVVQDSVNISGQNTMNMVKVPECRLADELGGLWENSRFTDCCLCVAGQEFQAHKAILAARSPVFSAMFEHEMEESKKNRVEINDVEPEVFKEMMCFIYTGKAPNLDKMADDLLAAADKYALERLKVMCEDALCSNLSVENAAEILILADLHSADQLKTQAVDFINYHASDVLETSGWKSMVVSHPHLVAEAYRSLASAQCPFLGPPRKRLKQS

Variants of: B1
Settings: with brd4_human BRD4, O60885

effect of a mutation on the interaction | Variant
disrupting interaction strength | F133V

Variants of: B1
Settings: with ncoa3_human NCOA3, Q9Y6Q9

effect of a mutation on the interaction | Variant
disrupting interaction strength | F133V

Variants of: B1
Settings: with jun_human JUN

effect of a mutation on the interaction | Variant
with no effect | F133V

Variants of: B1
Settings: with akt1_human AKT1, P31749

effect of a mutation on the interaction | Variant
with no effect | F133V

Variants of: B1
Settings: with alk_human ALK

effect of a mutation on the interaction | Variant
with no effect | F133V

Variants of: B1
Settings: with aph1a_human APH1A

effect of a mutation on the interaction | Variant
with no effect | F133V

Variants of: B1
Settings: with arnt_human ARNT

effect of a mutation on the interaction | Variant
with no effect | F133V

Variants of: B1
Settings: with asxl2_human ASXL2, Q76L83

effect of a mutation on the interaction | Variant
with no effect | F133V

Variants of: B1
Settings: with bakor_human ATG14, Q6ZNE5

effect of a mutation on the interaction | Variant
with no effect | F133V

Variants of: B1
Settings: with atm_human ATM

effect of a mutation on the interaction | Variant
with no effect | F133V

Variants of: B1
Settings: with atpb_human ATP5F1B

effect of a mutation on the interaction | Variant
with no effect | F133V

Variants of: B1
Settings: with aurkb_human AURKB

effect of a mutation on the interaction | Variant
with no effect | F133V

Variants of: B1
Settings: with axin2_human AXIN2, Q9Y2T1

effect of a mutation on the interaction | Variant
with no effect | F133V

Variants of: B1
Settings: with ufo_human AXL

effect of a mutation on the interaction | Variant
with no effect | F133V

Variants of: B1
Settings: with za2g_human AZGP1, P25311

effect of a mutation on the interaction | Variant
with no effect | F133V

Variants of: B1
Settings: with b2mg_human B2M

effect of a mutation on the interaction | Variant
with no effect | F133V

Variants of: B1
Settings: with bap1_human BAP1, Q92560

effect of a mutation on the interaction | Variant
with no effect | F133V

Variants of: B1
Settings: with bcor_human BCOR

effect of a mutation on the interaction | Variant
with no effect | F133V

Variants of: B1
Settings: with birc2_human BIRC2, Q13490

effect of a mutation on the interaction | Variant
with no effect | F133V

Variants of: B1
Settings: with brd4_human BRD4, O60885
Remark: another data set of the same source

effect of a mutation on the interaction | Variant
with no effect | F133V

Variants of: B1
Settings: with baba2_human BABAM2, Q9NXR7

effect of a mutation on the interaction | Variant
with no effect | F133V

Variants of: B1
Settings: with btg1_human BTG1, P62324

effect of a mutation on the interaction | Variant
with no effect | F133V

Variants of: B1
Settings: with btk_human BTK

effect of a mutation on the interaction | Variant
with no effect | F133V

Variants of: B1
Settings: with ccnd1_human CCND1, P24385

effect of a mutation on the interaction | Variant
with no effect | F133V

Variants of: B1
Settings: with ccnd2_human CCND2, P30279

effect of a mutation on the interaction | Variant
with no effect | F133V

Variants of: B1
Settings: with ccnd3_human CCND3, P30281

effect of a mutation on the interaction | Variant
with no effect | F133V

Variants of: B1
Settings: with cd44_human CD44, P16070

effect of a mutation on the interaction | Variant
with no effect | F133V

Variants of: B1
Settings: with cd79b_human CD79B

effect of a mutation on the interaction | Variant
with no effect | F133V

Variants of: B1
Settings: with cdc73_human CDC73, Q6P1J9

effect of a mutation on the interaction | Variant
with no effect | F133V

Variants of: B1
Settings: with cdk4_human CDK4, P11802

effect of a mutation on the interaction | Variant
with no effect | F133V

Variants of: B1
Settings: with cdk6_human CDK6, Q00534

effect of a mutation on the interaction | Variant
with no effect | F133V

Variants of: B1
Settings: with cdn2c_human CDKN2C

effect of a mutation on the interaction | Variant
with no effect | F133V

Variants of: B1
Settings: with chd1l_human CHD1L

effect of a mutation on the interaction | Variant
with no effect | F133V

Variants of: B1
Settings: with chd2_human CHD2, O14647

effect of a mutation on the interaction | Variant
with no effect | F133V

Variants of: B1
Settings: with ch3l1_human CHI3L1, P36222

effect of a mutation on the interaction | Variant
with no effect | F133V

Variants of: B1
Settings: with cul3_human CUL3, Q13618

effect of a mutation on the interaction | Variant
with no effect | F133V

Variants of: B1
Settings: with cul4b_human CUL4B

effect of a mutation on the interaction | Variant
with no effect | F133V

Variants of: B1
Settings: with daxx_human DAXX

effect of a mutation on the interaction | Variant
with no effect | F133V

Variants of: B1
Settings: with ddx5_human DDX5, P17844

effect of a mutation on the interaction | Variant
with no effect | F133V

Variants of: B1
Settings: with dll3_human DLL3, Q9NYJ7

effect of a mutation on the interaction | Variant
with no effect | F133V

Variants of: B1
Settings: with duox2_human DUOX2, Q9NRD8

effect of a mutation on the interaction | Variant
with no effect | F133V

Variants of: B1
Settings: with e2f2_human E2F2, Q14209

effect of a mutation on the interaction | Variant
with no effect | F133V

Variants of: B1
Settings: with e2f3_human E2F3, O00716

effect of a mutation on the interaction | Variant
with no effect | F133V

Variants of: B1
Settings: with e2f5_human E2F5, Q15329

effect of a mutation on the interaction | Variant
with no effect | F133V

Variants of: B1
Settings: with e2f6_human E2F6, O75461

effect of a mutation on the interaction | Variant
with no effect | F133V

Variants of: B1
Settings: with e2f8_human E2F8, A0AVK6

effect of a mutation on the interaction | Variant
with no effect | F133V

Variants of: B1
Settings: with if4e_human EIF4E

effect of a mutation on the interaction | Variant
with no effect | F133V

Variants of: B1
Settings: with epha7_human EPHA7, Q15375

effect of a mutation on the interaction | Variant
with no effect | F133V

Variants of: B1
Settings: with ephb1_human EPHB1, P54762

effect of a mutation on the interaction | Variant
with no effect | F133V

Variants of: B1
Settings: with erbb3_human ERBB3, P21860

effect of a mutation on the interaction | Variant
with no effect | F133V

Variants of: B1
Settings: with erbb4_human ERBB4, Q15303

effect of a mutation on the interaction | Variant
with no effect | F133V

Variants of: B1
Settings: with esr1_human ESR1, P03372

effect of a mutation on the interaction | Variant
with no effect | F133V

Variants of: B1
Settings: with etv1_human ETV1, P50549

effect of a mutation on the interaction | Variant
with no effect | F133V

Variants of: B1
Settings: with ezh1_human EZH1, Q92800

effect of a mutation on the interaction | Variant
with no effect | F133V

Variants of: B1
Settings: with ezh2_human EZH2, Q15910

effect of a mutation on the interaction | Variant
with no effect | F133V

Variants of: B1
Settings: with facd2_human FANCD2, Q9BXW9

effect of a mutation on the interaction | Variant
with no effect | F133V

Variants of: B1
Settings: with fgf19_human FGF19, O95750

effect of a mutation on the interaction | Variant
with no effect | F133V

Variants of: B1
Settings: with fgfp1_human FGFBP1, Q14512

effect of a mutation on the interaction | Variant
with no effect | F133V

Variants of: B1
Settings: with fgfr4_human FGFR4, P22455

effect of a mutation on the interaction | Variant
with no effect | F133V

Variants of: B1
Settings: with fumh_human FH

effect of a mutation on the interaction | Variant
with no effect | F133V
